The supplement of paper PMC10065799, “High-throughput profiling of sequence recognition by tyrosine kinases and SH2 domains using bacterial peptide display” (eLife, 2023)

Key:
AncSZ = experiment: phosphorylation enrichment, bacterial display (enrichment ratio); higher = better substrate or ligand; peptides without Tyr show the background
EPHB1 = EPHB1 (UniProt P54762); experiment: as above
EPHB2 = EPHB2 (UniProt P29323); experiment: as above
FGFR1 = FGFR1 (UniProt P11362); experiment: as above
FGFR3 = FGFR3 (UniProt P22607); experiment: as above
Fer (mouse) = experiment: as above
Fes = Fes (UniProt P07332); experiment: as above
Fyn = Fyn (UniProt P06241); experiment: as above
Hck = Hck (UniProt P08631); experiment: as above
Jak2 = Jak2 (UniProt O60674); experiment: as above
MERTK = MERTK (UniProt Q12866); experiment: as above
c-Abl (mouse) = experiment: as above
c-Src = experiment: as above
Grb2 SH2 = Grb2 SH2 (UniProt P62993); experiment: SH2 binding enrichment of the phosphorylated peptide, bacterial display (enrichment ratio); higher = better substrate or ligand; peptides without Tyr show the background
SHP2-C SH2 = experiment: as above
c-Src SH2 = experiment: as above
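Throughout, for SH2 binding enrichment of the phosphorylated peptide, bacterial display: peptide library displayed on the E. coli surface as eCPX fusions, selected cells deep-sequenced, score is each peptide's frequency after selection divided by its frequency in the input.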
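Throughout, for phosphorylation enrichment, bacterial display: 11-residue human phosphosite peptides and single-mutation variants displayed on the E. coli surface, counted by deep sequencing, each peptide's frequency after selection divided by its frequency in the unselected input library; frequency after pTyr selection over input frequency; kinase dosed for 20-30% of maximal phosphorylation in three min.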

Chain of Jak2 (O60674 whole entry, looked up): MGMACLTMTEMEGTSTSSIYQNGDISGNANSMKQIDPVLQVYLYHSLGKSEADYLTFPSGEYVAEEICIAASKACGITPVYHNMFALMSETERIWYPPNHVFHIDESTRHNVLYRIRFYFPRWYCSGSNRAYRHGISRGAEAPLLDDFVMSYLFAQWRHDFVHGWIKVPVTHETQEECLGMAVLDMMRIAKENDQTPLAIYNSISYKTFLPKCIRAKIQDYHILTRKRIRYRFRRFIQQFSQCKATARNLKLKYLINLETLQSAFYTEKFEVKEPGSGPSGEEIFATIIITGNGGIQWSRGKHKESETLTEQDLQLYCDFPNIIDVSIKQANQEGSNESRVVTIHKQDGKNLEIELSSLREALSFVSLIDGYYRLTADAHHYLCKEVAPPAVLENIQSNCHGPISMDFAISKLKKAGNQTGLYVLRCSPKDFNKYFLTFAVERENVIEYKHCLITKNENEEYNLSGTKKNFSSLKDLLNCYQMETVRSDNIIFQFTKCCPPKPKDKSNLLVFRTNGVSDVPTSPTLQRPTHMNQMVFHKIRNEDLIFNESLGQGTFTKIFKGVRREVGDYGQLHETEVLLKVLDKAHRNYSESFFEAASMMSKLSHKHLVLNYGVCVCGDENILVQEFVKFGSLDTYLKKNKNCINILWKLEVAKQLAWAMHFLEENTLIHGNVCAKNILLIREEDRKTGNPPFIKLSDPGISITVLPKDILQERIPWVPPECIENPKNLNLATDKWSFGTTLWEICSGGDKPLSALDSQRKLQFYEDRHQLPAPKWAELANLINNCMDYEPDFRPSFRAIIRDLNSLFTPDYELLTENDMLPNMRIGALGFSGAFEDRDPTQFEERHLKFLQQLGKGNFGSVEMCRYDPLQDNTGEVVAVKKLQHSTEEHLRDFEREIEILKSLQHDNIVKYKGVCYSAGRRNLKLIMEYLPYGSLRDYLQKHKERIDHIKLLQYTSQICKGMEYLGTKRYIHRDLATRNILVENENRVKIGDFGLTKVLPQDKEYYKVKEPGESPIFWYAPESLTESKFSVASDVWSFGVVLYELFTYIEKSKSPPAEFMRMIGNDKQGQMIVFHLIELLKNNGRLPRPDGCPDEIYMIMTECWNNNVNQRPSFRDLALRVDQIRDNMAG
Chain of MERTK (Q12866 whole entry, looked up): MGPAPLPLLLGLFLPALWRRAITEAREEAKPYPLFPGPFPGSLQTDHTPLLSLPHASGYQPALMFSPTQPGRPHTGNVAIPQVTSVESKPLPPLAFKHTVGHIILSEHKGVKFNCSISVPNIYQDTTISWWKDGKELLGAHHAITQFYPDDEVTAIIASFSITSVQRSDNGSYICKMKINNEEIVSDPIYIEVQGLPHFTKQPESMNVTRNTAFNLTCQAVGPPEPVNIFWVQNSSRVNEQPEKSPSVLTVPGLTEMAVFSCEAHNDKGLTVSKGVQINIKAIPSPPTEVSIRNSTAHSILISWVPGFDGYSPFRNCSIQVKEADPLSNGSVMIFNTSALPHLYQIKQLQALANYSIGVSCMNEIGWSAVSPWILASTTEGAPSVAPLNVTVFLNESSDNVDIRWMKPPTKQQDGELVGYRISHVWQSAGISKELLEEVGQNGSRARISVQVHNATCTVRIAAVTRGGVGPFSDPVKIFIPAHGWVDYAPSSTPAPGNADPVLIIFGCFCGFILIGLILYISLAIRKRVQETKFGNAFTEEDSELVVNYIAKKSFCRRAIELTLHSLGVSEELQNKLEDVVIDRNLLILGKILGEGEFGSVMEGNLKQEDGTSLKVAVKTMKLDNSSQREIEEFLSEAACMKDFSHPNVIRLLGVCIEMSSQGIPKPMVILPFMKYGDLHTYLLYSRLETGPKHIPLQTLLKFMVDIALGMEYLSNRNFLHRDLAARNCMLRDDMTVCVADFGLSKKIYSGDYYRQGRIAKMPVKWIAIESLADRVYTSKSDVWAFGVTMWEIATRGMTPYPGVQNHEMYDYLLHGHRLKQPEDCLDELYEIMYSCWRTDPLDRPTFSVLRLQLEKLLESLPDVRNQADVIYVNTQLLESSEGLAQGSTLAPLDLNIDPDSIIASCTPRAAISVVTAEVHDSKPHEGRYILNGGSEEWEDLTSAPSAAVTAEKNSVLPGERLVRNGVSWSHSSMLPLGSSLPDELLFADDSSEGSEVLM
Chain of EPHB2 (P29323 whole entry, looked up): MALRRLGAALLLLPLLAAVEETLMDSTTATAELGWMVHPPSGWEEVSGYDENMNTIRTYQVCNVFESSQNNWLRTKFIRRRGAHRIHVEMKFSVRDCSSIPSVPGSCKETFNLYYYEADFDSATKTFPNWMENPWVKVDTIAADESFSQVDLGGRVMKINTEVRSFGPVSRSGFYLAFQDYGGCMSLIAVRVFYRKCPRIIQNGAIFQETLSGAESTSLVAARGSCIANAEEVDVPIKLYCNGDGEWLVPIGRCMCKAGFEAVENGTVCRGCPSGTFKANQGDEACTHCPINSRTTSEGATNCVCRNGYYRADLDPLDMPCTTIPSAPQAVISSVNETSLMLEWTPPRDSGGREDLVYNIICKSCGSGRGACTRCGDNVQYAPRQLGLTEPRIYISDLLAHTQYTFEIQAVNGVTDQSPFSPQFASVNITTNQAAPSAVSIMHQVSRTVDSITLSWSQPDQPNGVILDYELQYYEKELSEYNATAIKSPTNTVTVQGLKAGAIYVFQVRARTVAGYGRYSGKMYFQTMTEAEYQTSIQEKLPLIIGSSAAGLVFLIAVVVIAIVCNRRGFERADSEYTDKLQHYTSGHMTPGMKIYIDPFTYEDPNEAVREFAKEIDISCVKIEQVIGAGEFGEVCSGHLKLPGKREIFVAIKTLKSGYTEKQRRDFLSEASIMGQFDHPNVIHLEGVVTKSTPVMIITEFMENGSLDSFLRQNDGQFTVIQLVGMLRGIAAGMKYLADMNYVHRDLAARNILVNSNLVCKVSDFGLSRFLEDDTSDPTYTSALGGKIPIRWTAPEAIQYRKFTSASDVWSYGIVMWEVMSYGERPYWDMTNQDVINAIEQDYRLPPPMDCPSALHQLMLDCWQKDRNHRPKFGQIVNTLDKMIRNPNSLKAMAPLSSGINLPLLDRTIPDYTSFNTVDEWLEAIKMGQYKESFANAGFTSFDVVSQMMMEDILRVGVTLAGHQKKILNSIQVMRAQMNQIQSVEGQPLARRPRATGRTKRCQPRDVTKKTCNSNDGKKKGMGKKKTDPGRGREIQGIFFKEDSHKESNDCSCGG
Chain of Fes (P07332 whole entry, looked up): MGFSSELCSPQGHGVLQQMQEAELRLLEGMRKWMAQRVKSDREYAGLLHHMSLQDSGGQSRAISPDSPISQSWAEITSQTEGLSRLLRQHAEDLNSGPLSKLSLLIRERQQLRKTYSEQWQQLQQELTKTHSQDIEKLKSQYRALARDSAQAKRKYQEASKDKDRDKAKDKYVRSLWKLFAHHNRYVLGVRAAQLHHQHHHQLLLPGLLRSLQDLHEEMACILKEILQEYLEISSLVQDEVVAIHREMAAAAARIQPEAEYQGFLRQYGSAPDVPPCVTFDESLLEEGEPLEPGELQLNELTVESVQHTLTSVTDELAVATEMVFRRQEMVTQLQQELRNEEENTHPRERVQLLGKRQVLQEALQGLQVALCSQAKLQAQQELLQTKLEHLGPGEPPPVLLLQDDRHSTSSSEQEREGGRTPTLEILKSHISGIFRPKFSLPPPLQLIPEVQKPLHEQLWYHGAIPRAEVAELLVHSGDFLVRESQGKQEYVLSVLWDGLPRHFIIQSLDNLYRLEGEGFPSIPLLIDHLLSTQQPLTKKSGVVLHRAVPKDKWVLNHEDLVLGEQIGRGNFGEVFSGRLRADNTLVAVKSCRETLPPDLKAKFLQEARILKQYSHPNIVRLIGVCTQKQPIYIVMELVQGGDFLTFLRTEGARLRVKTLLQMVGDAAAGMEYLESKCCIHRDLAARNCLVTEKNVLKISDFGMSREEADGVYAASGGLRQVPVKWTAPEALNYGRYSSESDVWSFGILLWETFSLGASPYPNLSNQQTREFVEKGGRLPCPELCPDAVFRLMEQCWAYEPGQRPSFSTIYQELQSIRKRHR
Chain of Grb2 SH2 (P62993 whole entry, looked up): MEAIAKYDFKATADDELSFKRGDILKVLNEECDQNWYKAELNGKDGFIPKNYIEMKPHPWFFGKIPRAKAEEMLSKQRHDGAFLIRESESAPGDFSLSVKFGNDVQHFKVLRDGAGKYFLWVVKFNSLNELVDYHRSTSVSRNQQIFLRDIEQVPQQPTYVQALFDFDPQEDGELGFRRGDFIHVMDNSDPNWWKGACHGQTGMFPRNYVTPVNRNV
Chain of Fyn (P06241 whole entry, looked up): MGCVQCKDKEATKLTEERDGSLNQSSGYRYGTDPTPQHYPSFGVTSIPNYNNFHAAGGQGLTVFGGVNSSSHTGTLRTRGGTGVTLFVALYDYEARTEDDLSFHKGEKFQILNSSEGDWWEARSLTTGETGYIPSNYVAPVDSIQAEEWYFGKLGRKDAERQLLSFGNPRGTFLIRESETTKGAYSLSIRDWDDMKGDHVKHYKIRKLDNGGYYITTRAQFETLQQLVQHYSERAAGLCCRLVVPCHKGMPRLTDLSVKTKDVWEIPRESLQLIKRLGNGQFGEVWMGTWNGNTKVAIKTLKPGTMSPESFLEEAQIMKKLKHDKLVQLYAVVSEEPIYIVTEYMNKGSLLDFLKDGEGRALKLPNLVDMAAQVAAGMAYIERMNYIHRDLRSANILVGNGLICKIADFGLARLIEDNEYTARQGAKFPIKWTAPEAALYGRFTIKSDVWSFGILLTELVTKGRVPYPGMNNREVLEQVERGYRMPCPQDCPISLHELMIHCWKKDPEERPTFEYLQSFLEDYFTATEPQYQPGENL

Sequence | phosphorylation enrichment (AncSZ) | phosphorylation enrichment (EPHB1) | phosphorylation enrichment (EPHB2) | phosphorylation enrichment (FGFR1) | phosphorylation enrichment (FGFR3) | phosphorylation enrichment (Fer (mouse)) | phosphorylation enrichment (Fes) | phosphorylation enrichment (Fyn) | phosphorylation enrichment (Hck) | phosphorylation enrichment (Jak2) | phosphorylation enrichment (MERTK) | phosphorylation enrichment (c-Abl (mouse)) | phosphorylation enrichment (c-Src) | SH2 binding enrichment (Grb2 SH2) | SH2 binding enrichment (SHP2-C SH2) | SH2 binding enrichment (c-Src SH2)
IHSGIYYKPES [L2HGDH_Y102] | 1.45 | 3.93 | 2.02 | 1.53 | 1.38 | 0.943 | 0.752 | 6 | 5.38 | 3.48 | 11.7 | 18.7 | 4.54 | 0.762 | 0.539 | 0.67
IKETHYMVDRC | 0.992 | 0.472 | 0.704 | 0.555 | 0.579 | 0.47 | 0.992 | 0.455 | 0.461 | 0.654 | 0.481 | 0.581 | 0.464 | 0.78 | 0.623 | 0.465
IKGIRYLHHRG [GUCY2D_Y656] | 0.466 | 0.423 | 0.358 | 0.348 | 0.363 | 0.432 | 0.469 | 0.415 | 0.344 | 0.597 | 0.376 | 0.497 | 0.439 | 1.39 | 0.966 | 1.01
ILGTFYETGSI [PAX2_Y73_R71T_YF] | 0.773 | 0.466 | 0.541 | 0.582 | 0.526 | 0.749 | 0.956 | 0.524 | 0.621 | 0.871 | 0.568 | 0.587 | 0.529 | 0.841 | 0.837 | 0.619
ILGTYYETGSI [PAX2_Y73_R71T] | 0.971 | 2.54 | 2.19 | 9.71 | 8.15 | 0.645 | 1.04 | 4.14 | 2.99 | 1.28 | 3.6 | 1.16 | 4.01 | 0.998 | 0.559 | 1.4
ILLAGCLVMVI [SLC28A3_Y113_Y113C] | 1.24 | 0.607 | 0.614 | 0.422 | 0.829 | 0.493 | 1.26 | 0.471 | 0.51 | 1.18 | 0.486 | 0.995 | 0.475 | 0.92 | 0.534 | 0.533
ILTLKYPIKHG [ACTA1_Y71_E74K] | 0.523 | 0.426 | 0.518 | 0.449 | 0.497 | 0.413 | 0.588 | 0.431 | 0.349 | 0.558 | 0.344 | 0.367 | 0.341 | 1.12 | 1.46 | 0.787
INITIYGKTFH [EFHC1_Y177_R182H] | 1.11 | 0.546 | 0.513 | 0.429 | 0.817 | 0.579 | 1.44 | 0.519 | 0.544 | 1.08 | 0.473 | 0.958 | 0.468 | 1.15 | 0.781 | 0.47
INMKEYCKKDF [NTN1_Y490_K489E_YF] | 0.877 | 0.66 | 0.678 | 0.512 | 0.743 | 0.427 | 1.12 | 0.669 | 0.498 | 0.937 | 0.468 | 0.791 | 0.476 | 1.01 | 0.65 | 0.574
INPIIYAFVVE [CCR5_Y297_G301V] | 1.25 | 4.53 | 3.82 | 1 | 1.29 | 2.66 | 1.5 | 2.42 | 1.78 | 1.2 | 4.13 | 2.37 | 2.59 | 0.912 | 0.73 | 0.402
IPGRYYETGSI [PAX2_Y73_L69P] | 0.505 | 0.451 | 0.595 | 0.492 | 0.498 | 0.331 | 0.646 | 0.454 | 0.428 | 0.573 | 0.405 | 0.616 | 0.437 | 0.777 | 0.743 | 1.67
IRGNMYYENSY [EGFR_Y112] | 0.761 | 0.486 | 0.594 | 0.58 | 0.665 | 0.535 | 0.733 | 0.468 | 0.603 | 0.55 | 1.06 | 0.449 | 0.526 | 4.75 | 0.897 | 4.19
IRKDLYANNVL [ACTA2_Y296] | 0.527 | 0.38 | 0.46 | 0.421 | 0.564 | 0.422 | 0.59 | 0.413 | 0.45 | 0.54 | 0.476 | 0.581 | 0.429 | 1.23 | 0.614 | 0.569
IRTIDYRYTVS [IDS_Y497_W502S] | 0.789 | 0.437 | 0.666 | 0.593 | 0.601 | 0.45 | 1.13 | 0.558 | 0.532 | 0.713 | 0.411 | 0.46 | 0.385 | 0.73 | 0.823 | 0.69
ISSLRYKLLEE [TRPC6_Y896_E897K] | 0.786 | 0.514 | 0.476 | 0.426 | 0.549 | 0.38 | 0.986 | 0.503 | 0.47 | 0.64 | 0.347 | 0.603 | 0.407 | 0.742 | 0.65 | 0.513
IVAEFYDNLPH [DEGS1_Y284_A280V_YF] | 0.929 | 0.517 | 0.556 | 0.477 | 0.624 | 0.978 | 0.891 | 0.549 | 3.36 | 0.792 | 0.853 | 0.694 | 0.733 | 0.727 | 0.695 | 0.931
IVAEYYDNLPH [DEGS1_Y284_A280V] | 1.9 | 1.09 | 0.924 | 9.37 | 6.4 | 1.37 | 1.38 | 0.682 | 3.07 | 1.53 | 1.51 | 1.25 | 0.958 | 0.934 | 0.574 | 1.5
IVEYAYNDKAV [PUM3_Y259_I264V] | 0.989 | 0.669 | 0.418 | 0.52 | 0.673 | 0.455 | 1.1 | 0.418 | 0.42 | 1 | 0.5 | 1.01 | 0.492 | 0.927 | 0.881 | 0.719
IYRASYVPFAA [RBM47_Y541_G538R] | 1.04 | 0.81 | 0.571 | 0.562 | 0.645 | 0.521 | 0.897 | 0.593 | 0.657 | 0.82 | 0.66 | 7.02 | 0.681 | 0.866 | 0.742 | 0.611
KAIMTYVPSFF [ACTN4_Y260_S262P_YF] | 0.72 | 0.61 | 0.531 | 0.445 | 0.542 | 0.438 | 0.838 | 0.499 | 0.497 | 0.678 | 0.487 | 0.647 | 0.46 | 0.97 | 0.836 | 0.97
KANEYYPVVII [ADAMTS18_Y765_L769I] | 2.63 | 1.65 | 2.08 | 12.8 | 10.8 | 1.45 | 0.978 | 0.613 | 0.738 | 3.18 | 0.81 | 2.4 | 0.704 | 0.721 | 0.458 | 0.383
KDGSGYISAAE [CALM1_Y100_N98S] | 0.648 | 0.388 | 0.409 | 0.456 | 0.496 | 0.369 | 0.82 | 0.476 | 0.444 | 0.6 | 0.464 | 0.544 | 0.4 | 0.715 | 0.816 | 0.465
KDHPDYKFQPR [SOX10_Y171_YF] | 0.694 | 0.466 | 0.501 | 0.519 | 0.543 | 0.44 | 0.745 | 0.487 | 0.48 | 0.566 | 0.468 | 0.573 | 0.453 | 0.946 | 0.71 | 0.498
KDKLPYLYDDP [GPX2_Y125_P126L] | 1.17 | 0.947 | 0.765 | 0.5 | 0.624 | 0.77 | 0.983 | 0.522 | 0.537 | 0.857 | 0.461 | 0.547 | 0.455 | 0.871 | 0.682 | 1.04
KDKLPYPFDDP [GPX2_Y125_YF] | 1.04 | 0.457 | 0.792 | 0.567 | 0.638 | 0.533 | 1.01 | 0.556 | 0.498 | 0.821 | 0.512 | 0.581 | 0.486 | 0.815 | 0.854 | 0.454
KDQGGYTMHQD [MAPT_Y29] | 0.754 | 0.4 | 0.456 | 0.512 | 0.465 | 0.399 | 0.793 | 0.404 | 0.484 | 0.542 | 0.413 | 0.569 | 0.385 | 0.722 | 0.349 | 0.451
KEEEDYREENN [BMS1_Y651_K652R] | 1.3 | 0.63 | 0.528 | 0.582 | 0.79 | 0.585 | 1.24 | 0.5 | 0.65 | 1.15 | 0.601 | 0.877 | 0.536 | 0.754 | 0.822 | 0.458
KFADVYVGICL [B3GALNT1_Y269_E266A] | 1.46 | 0.846 | 0.988 | 0.65 | 0.909 | 0.978 | 1.34 | 0.787 | 0.85 | 1.21 | 0.522 | 1.29 | 1.12 | 0.731 | 0.369 | 0.423
KGNMYYENSYA [EGFR_Y113_R108K] | 0.667 | 0.629 | 0.593 | 0.878 | 0.72 | 1.23 | 0.77 | 0.515 | 0.561 | 0.481 | 1.17 | 0.474 | 0.473 | 10.2 | 1.05 | 4.96
